Legend:
PCSK9 [1] = target: T1, PCSK9 (Homo sapiens, UniProt Q8NBP7); assay: Phase 1b ascending multiple dose study in hyperlipidemic subjects on a statin; assay type: in vivo
T1 construct: endogenous in cells; host or cells: human subjects, in vivo
Description: The study had seven cohorts. […] Cohort 6 was conducted in hypercholesterolemic subjects on high doses of a statin (atorvastatin 80 mg or rosuvastatin 40 mg).

PCSK9 [2] = target: T1, PCSK9; assay: 12 week dose-ranging study in combination with statins (Example 25); assay type: in vivo; conditions: on statin, preliminary
Description: Randomization will be stratified by screening LDL-C level (<130 mg/dL [3.4 mmol/L] vs ≥130 mg/dL) and ezetimibe use at baseline (yes vs no). Randomization should occur within 5-10 days of the screening LDL-C evaluation used to determine eligibility. Study visits are every 2 weeks, irrespective whether the subject receives Q2W SC or Q4W treatment. […] The end-of-study visit and the last estimation of lipids is at week 12 for subjects on Q4W IP schedule and week 14 for subjects on Q2W IP schedule.
Males and females, ≥18 to ≤80 years of age, are eligible for this study. For enrollment,
subjects must be on a statin, with or without ezetimibe, with stable dose(s) for at least 4 weeks before LDL-C screening and not requiring uptitration. Fasting LDL-C at screening must be ≥85 mg/dL (2.2 mmol/L). Enrollment of subjects with screening fasting LDL-C between ≥85 mg/dL (2.2 mmol/L) and <100 mg/dL (2.6 mmol/L) will be limited to no more than approximately 20% of total planned enrollment. Fasting triglycerides must be ≤400 mg/dL (4.5 mmol/L) as determined by the central laboratory analysis at screening.

[3] = cohorts 1-5, end of dosing interval
[4] = 70 mg Q2W SC, end of dosing interval
[5] = 105 mg Q2W SC, end of dosing interval
[6] = 280 mg (Q2W as printed) SC, end of dosing interval
[7] = 350 mg (Q2W as printed) SC, end of dosing interval

T1 sequence (Q8NBP7 153-692): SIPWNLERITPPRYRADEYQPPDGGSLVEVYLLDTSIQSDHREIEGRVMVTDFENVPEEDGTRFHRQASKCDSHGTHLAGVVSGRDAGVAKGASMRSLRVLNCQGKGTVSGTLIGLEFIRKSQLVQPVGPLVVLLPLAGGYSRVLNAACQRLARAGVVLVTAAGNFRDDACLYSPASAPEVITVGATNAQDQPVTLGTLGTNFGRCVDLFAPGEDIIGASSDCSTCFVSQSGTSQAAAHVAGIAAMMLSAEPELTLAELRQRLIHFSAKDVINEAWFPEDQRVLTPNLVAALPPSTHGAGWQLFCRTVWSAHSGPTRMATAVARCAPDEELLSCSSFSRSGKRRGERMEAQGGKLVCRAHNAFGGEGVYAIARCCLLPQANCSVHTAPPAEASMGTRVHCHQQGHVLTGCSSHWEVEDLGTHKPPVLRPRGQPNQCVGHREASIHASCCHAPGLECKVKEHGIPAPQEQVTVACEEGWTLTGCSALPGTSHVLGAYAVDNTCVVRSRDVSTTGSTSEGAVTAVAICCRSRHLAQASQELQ

B1: 21B12: human anti-PCSK9 monoclonal antibody, light/heavy variable region SEQ ID NO 23/49 (antibody, listed as Homo sapiens, V domains shown)
VH: QVQLVQSGAEVKKPGASVKVSCKASGYTLTSYGISWVRQAPGQGLEWMGWVSFYNGNTNYAQKLQGRGTMTTDPSTSTAYMELRSLRSDDTAVYYCARGYGMDVWGQGTTVTVSS
VL: QSALTQPASVSGSPGQSITISCTGTSSDVGGYNSVSWYQQHPGKAPKLMIYEVSNRPSGVSNRFSGSKSGNTASLTISGLQAEDEADYYCNSYTSTSMVFGGGTKLTVL
suppression of PCSK9 (PCSK9 [1]; cohort 3 (140 mg Q2W SC 3 times), preliminary): Near-complete suppression of PCSK9 | maximum reduction in LDL-C versus placebo (PCSK9 [1]; cohort 6, high-dose statins): 73% | mean reduction in LDL-C vs placebo (PCSK9 [1]; cohort 6, high-dose statins, end of dosing interval after 3 biweekly doses): 63% | maximum LDL-C reduction versus placebo (PCSK9 [1]; cohort 7 heFH): 70% | maximum reduction of ApoB versus placebo (PCSK9 [1]; cohort 7 heFH): 57% | maximum reduction of non-HDL cholesterol versus placebo (PCSK9 [1]; cohort 7 heFH): 67% | maximum total cholesterol reduction versus placebo (PCSK9 [1]; cohort 7 heFH): 47% | mean reduction in LDL-C vs placebo (PCSK9 [1]; cohort 7 heFH, 140 mg SC Q2W 3 times, week 6): 65% | mean reduction in ApoB levels vs placebo (PCSK9 [1]; cohort 7 heFH, week 6): up to 47% | mean reduction in lipoprotein a (Lp(a)) vs placebo (PCSK9 [1]; cohort 7 heFH, week 6): 50% | mean reduction in non-HDL cholesterol vs placebo (PCSK9 [1]; cohort 7 heFH, week 6): 61% | mean reduction in serum PCSK9 values vs placebo (PCSK9 [1]; cohort 7 heFH, week 6): 78% | mean reduction in total cholesterol vs placebo (PCSK9 [1]; cohort 7 heFH, week 6): up to 42% | maximum ApoB reduction vs placebo (PCSK9 [1]; cohorts 1-5): up to 59% | mean LDL-C reduction vs placebo at maximal reduction (PCSK9 [1]; cohorts 1-5, low to moderate statin doses): up to 81% | mean ApoB reduction vs placebo (PCSK9 [1]; [3]): up to 54% | mean reduction of PCSK9 levels vs placebo (PCSK9 [1]; [3]): up to 94% | mean LDL-C reduction vs placebo at end of dosing interval (PCSK9 [1]; cohorts 1-5, week 6 after 3 biweekly SC doses): ≤ 75% | mean LDL-C reduction at end of dosing interval (PCSK9 [1]; cohorts 1-5, week 8 after 2 every 4 week SC doses): ≤ 66% | mean Lp(a) reduction vs placebo (PCSK9 [1]; cohorts 1-6, end of dosing interval): up to 43% | circulating PCSK9 after treatment (PCSK9 [1]; heFH subjects): undetectable | plasma PCSK9 (PCSK9 [1]; higher doses): undetectable | serious AEs (PCSK9 [1]; repeated SC doses over 6 weeks): no serious AEs | decrease in circulating LDL-C vs placebo (PCSK9 [1]; repeated SC doses over 6 weeks, low-to-moderate or high-dose statins): up to 81% | LDL-C nadir observed after initial dosing (PCSK9 [1]; subjects on stable moderate statin doses, preliminary): ≤ 2 weeks | LS mean percent increase from baseline in HDL-C (PCSK9 [2]; [4]): 21.17% | LS mean percent reduction from baseline in LDL-C (PCSK9 [2]; [4]): 39.22% | LS mean percent reduction from baseline in Lp(a) (PCSK9 [2]; [4]): 21.17% | LS mean percent reduction from baseline in VLDL-C (PCSK9 [2]; [4]): 14.84% | LS mean percent reduction from baseline in non-HDL-C (PCSK9 [2]; [4]): 36.20% | LS mean percent reduction from baseline in total cholesterol (PCSK9 [2]; [4]): 26.33% | LS mean percent reduction from baseline in triglycerides (PCSK9 [2]; [4]): 7.20% | LS mean percent increase from baseline in HDL-C (PCSK9 [2]; [5]): 6.80% | LS mean percent reduction from baseline in LDL-C (PCSK9 [2]; [5]): 56.38% | LS mean percent reduction from baseline in Lp(a) (PCSK9 [2]; [5]): 33.41% | LS mean percent reduction from baseline in VLDL-C (PCSK9 [2]; [5]): 12.75% | LS mean percent reduction from baseline in non-HDL-C (PCSK9 [2]; [5]): 51.20% | LS mean percent reduction from baseline in total cholesterol (PCSK9 [2]; [5]): 36.91% | LS mean percent reduction from baseline in triglycerides (PCSK9 [2]; [5]): 5.65% | LS mean percent increase from baseline in HDL-C (PCSK9 [2]; 140 mg Q2W SC): 8.43% | LS mean percent reduction from baseline in LDL-C (PCSK9 [2]; 140 mg Q2W SC): 68.76% | LS mean percent reduction from baseline in Lp(a) (PCSK9 [2]; 140 mg Q2W SC): 33.87% | LS mean percent reduction from baseline in VLDL-C (PCSK9 [2]; 140 mg Q2W SC): 45.14% | LS mean percent reduction from baseline in non-HDL-C (PCSK9 [2]; 140 mg Q2W SC): 64.61% | LS mean percent reduction from baseline in total cholesterol (PCSK9 [2]; 140 mg Q2W SC): 46.17% | LS mean percent reduction from baseline in triglycerides (PCSK9 [2]; 140 mg Q2W SC): 17.60% | LS mean percent increase from baseline in HDL-C (PCSK9 [2]; [6]): 2.17% | LS mean percent reduction from baseline in Lp(a) (PCSK9 [2]; [6]): 22.54% | LS mean percent reduction from baseline in VLDL-C (PCSK9 [2]; [6]): 18.12% | LS mean percent reduction from baseline in non-HDL-C (PCSK9 [2]; [6]): 38.89% | LS mean percent reduction from baseline in total cholesterol (PCSK9 [2]; [6]): 28.08% | LS mean percent reduction from baseline in triglycerides (PCSK9 [2]; [6]): 6.75% | LS mean percent reduction from baseline in LDL-C (PCSK9 [2]; 280 mg (Q4W) SC, end of dosing interval): 42.62% | LS mean percent increase from baseline in HDL-C (PCSK9 [2]; [7]): 6.92% | LS mean percent reduction from baseline in Lp(a) (PCSK9 [2]; [7]): 29.43% | LS mean percent reduction from baseline in VLDL-C (PCSK9 [2]; [7]): 20.89% | LS mean percent reduction from baseline in non-HDL-C (PCSK9 [2]; [7]): 50.83% | LS mean percent reduction from baseline in total cholesterol (PCSK9 [2]; [7]): 36.04% | LS mean percent reduction from baseline in triglycerides (PCSK9 [2]; [7]): 9.17% | LS mean percent reduction from baseline in LDL-C (PCSK9 [2]; 350 mg SC, end of dosing interval): 56.84% | LS mean percent increase from baseline in HDL-C (PCSK9 [2]; 420 mg (Q2W as printed) SC): 7.42% | LS mean percent reduction from baseline in Lp(a) (PCSK9 [2]; 420 mg (Q2W as printed) SC): 23.29% | LS mean percent reduction from baseline in VLDL-C (PCSK9 [2]; 420 mg (Q2W as printed) SC): 28.66% | LS mean percent reduction from baseline in non-HDL-C (PCSK9 [2]; 420 mg (Q2W as printed) SC): 48.54% | LS mean percent reduction from baseline in total cholesterol (PCSK9 [2]; 420 mg (Q2W as printed) SC): 42.76% | LS mean percent reduction from baseline in triglycerides (PCSK9 [2]; 420 mg (Q2W as printed) SC): 11.13% | LS mean percent reduction from baseline in LDL-C (PCSK9 [2]; 420 mg SC): 52.19%

Source: patent US12612465B2, “Formulations comprising PCSK9 specific monoclonal antibodies” (Amgen Inc., priority 2012, dated 2026)
